Measurements taken from PMC8298264, “Function of cofactor Akirin2 in the regulation of gene expression in model human neutrophil-like HL60 cells” (Bioscience Reports, 2021).

B1: sp¦Q15397¦PUM3_HUMAN (protein, UniProt Q15397 1-648, looked up)
Pumilio homolog 3: MEVKGKKQFTGKSTKTAQEKNRFHKNSDSGSSKTFPTRKVAKEGGPKVTSRNFEKSITKLGKKGVKQFKNKQQGDKSPKNKFQPANKFNKKRKFQPDGRSDESAAKKPKWDDFKKKKKELKQSRQLSDKTNYDIVVRAKQMWEILRRKDCDKEKRVKLMSDLQKLIQGKIKTIAFAHDSTRVIQCYIQYGNEEQRKQAFEELRDDLVELSKAKYSRNIVKKFLMYGSKPQIAEIIRSFKGHVRKMLRHAEASAIVEYAYNDKAILEQRNMLTEELYGNTFQLYKSADHRTLDKVLEVQPEKLELIMDEMKQILTPMAQKEAVIKHSLVHKVFLDFFTYAPPKLRSEMIEAIREAVVYLAHTHDGARVAMHCLWHGTPKDRKVIVKTMKTYVEKVANGQYSHLVLLAAFDCIDDTKLVKQIIISEIISSLPSIVNDKYGRKVLLYLLSPRDPAHTVREIIEVLQKGDGNAHSKKDTEVRRRELLESISPALLSYLQEHAQEVVLDKSACVLVSDILGSATGDVQPTMNAIASLAATGLHPGGKDGELHIAEHPAGHLVLKWLIEQDKKMKENGREGCFAKTLVEHVGMKNLKSWASVNRGAIILSSLLQSCDLEVANKVKAALKSLIPTLEKTKSTSKGIEILLEKLST
B2: sp¦P35908¦K22E_HUMAN (protein, UniProt P35908 1-639, looked up)
Keratin, type II cytoskeletal …: MSCQISCKSRGRGGGGGGFRGFSSGSAVVSGGSRRSTSSFSCLSRHGGGGGGFGGGGFGSRSLVGLGGTKSISISVAGGGGGFGAAGGFGGRGGGFGGGSSFGGGSGFSGGGFGGGGFGGGRFGGFGGPGGVGGLGGPGGFGPGGYPGGIHEVSVNQSLLQPLNVKVDPEIQNVKAQEREQIKTLNNKFASFIDKVRFLEQQNQVLQTKWELLQQMNVGTRPINLEPIFQGYIDSLKRYLDGLTAERTSQNSELNNMQDLVEDYKKKYEDEINKRTAAENDFVTLKKDVDNAYMIKVELQSKVDLLNQEIEFLKVLYDAEISQIHQSVTDTNVILSMDNSRNLDLDSIIAEVKAQYEEIAQRSKEEAEALYHSKYEELQVTVGRHGDSLKEIKIEISELNRVIQRLQGEIAHVKKQCKNVQDAIADAEQRGEHALKDARNKLNDLEEALQQAKEDLARLLRDYQELMNVKLALDVEIATYRKLLEGEECRMSGDLSSNVTVSVTSSTISSNVASKAAFGGSGGRGSSSGGGYSSGSSSYGSGGRQSGSRGGSGGGGSISGGGYGSGGGSGGRYGSGGGSKGGSISGGGYGSGGGKHSSGGGSRGGSSSGGGYGSGGGGSSSVKGSSGEAFGSSVTFSFR
B3: sp¦Q9NRP0¦OSTC_HUMAN (protein, UniProt Q9NRP0 1-149, looked up)
Oligosaccharyltransferase …: METLYRVPFLVLECPNLKLKKPPWLHMPSAMTVYALVVVSYFLITGGIIYDVIVEPPSVGSMTDEHGHQRPVAFLAYRVNGQYIMEGLASSFLFTMGGLGFIILDRSNAPNIPKLNRFLLLFIGFVCVLLSFFMARVFMRMKLPGYLMG
B4: sp¦P61006¦RAB8A_HUMAN (protein, UniProt P61006 1-204, looked up)
Ras-related protein Rab-8A: MAKTYDYLFKLLLIGDSGVGKTCVLFRFSEDAFNSTFISTIGIDFKIRTIELDGKRIKLQIWDTAGQERFRTITTAYYRGAMGIMLVYDITNEKSFDNIRNWIRNIEEHASADVEKMILGNKCDVNDKRQVSKERGEKLALDYGIKFMETSAKANINVENAFFTLARDIKAKMDKKLEGNSPQGSNQGVKITPDQQKRSSFFRC
B5: sp¦Q8TCJ2¦STT3B_HUMAN (protein, UniProt Q8TCJ2 2-826, looked up)
Dolichyl-diphosphooligosacchar …: AEPSAPESKHKSSLNSSPWSGLMALGNSRHGHHGPGAQCAHKAAGGAAPPKPAPAGLSGGLSQPAGWQSLLSFTILFLAWLAGFSSRLFAVIRFESIIHEFDPWFNYRSTHHLASHGFYEFLNWFDERAWYPLGRIVGGTVYPGLMITAGLIHWILNTLNITVHIRDVCVFLAPTFSGLTSISTFLLTRELWNQGAGLLAACFIAIVPGYISRSVAGSFDNEGIAIFALQFTYYLWVKSVKTGSVFWTMCCCLSYFYMVSAWGGYVFIINLIPLHVFVLLLMQRYSKRVYIAYSTFYIVGLILSMQIPFVGFQPIRTSEHMAAAGVFALLQAYAFLQYLRDRLTKQEFQTLFFLGVSLAAGAVFLSVIYLTYTGYIAPWSGRFYSLWDTGYAKIHIPIIASVSEHQPTTWVSFFFDLHILVCTFPAGLWFCIKNINDERVFVALYAISAVYFAGVMVRLMLTLTPVVCMLSAIAFSNVFEHYLGDDMKRENPPVEDSSDEDDKRNQGNLYDKAGKVRKHATEQEKTEEGLGPNIKSIVTMLMLMLLMMFAVHCTWVTSNAYSSPSVVLASYNHDGTRNILDDFREAYFWLRQNTDEHARVMSWWDYGYQIAGMANRTTLVDNNTWNNSHIALVGKAMSSNETAAYKIMRTLDVDYVLVIFGGVIGYSGDDINKFLWMVRIAEGEHPKDIRESDYFTPQGEFRVDKAGSPTLLNCLMYKMSYYRFGEMQLDFRTPPGFDRTRNAEIGNKDIKFKHLEEAFTSEHWLVRIYKVKAPDNRETLDHKPRVTNIFPKQKYLSKKTTKRKRGYIKNKLVFKKGKKISKKTV
B6: sp¦Q14683¦SMC1A_HUMAN (protein, UniProt Q14683 1-1233, looked up)
Structural maintenance of …: MGFLKLIEIENFKSYKGRQIIGPFQRFTAIIGPNGSGKSNLMDAISFVLGEKTSNLRVKTLRDLIHGAPVGKPAANRAFVSMVYSEEGAEDRTFARVIVGGSSEYKINNKVVQLHEYSEELEKLGILIKARNFLVFQGAVESIAMKNPKERTALFEEISRSGELAQEYDKRKKEMVKAEEDTQFNYHRKKNIAAERKEAKQEKEEADRYQRLKDEVVRAQVQLQLFKLYHNEVEIEKLNKELASKNKEIEKDKKRMDKVEDELKEKKKELGKMMREQQQIEKEIKEKDSELNQKRPQYIKAKENTSHKIKKLEAAKKSLQNAQKHYKKRKGDMDELEKEMLSVEKARQEFEERMEEESQSQGRDLTLEENQVKKYHRLKEEASKRAATLAQELEKFNRDQKADQDRLDLEERKKVETEAKIKQKLREIEENQKRIEKLEEYITTSKQSLEEQKKLEGELTEEVEMAKRRIDEINKELNQVMEQLGDARIDRQESSRQQRKAEIMESIKRLYPGSVYGRLIDLCQPTQKKYQIAVTKVLGKNMDAIIVDSEKTGRDCIQYIKEQRGEPETFLPLDYLEVKPTDEKLRELKGAKLVIDVIRYEPPHIKKALQYACGNALVCDNVEDARRIAFGGHQRHKTVALDGTLFQKSGVISGGASDLKAKARRWDEKAVDKLKEKKERLTEELKEQMKAKRKEAELRQVQSQAHGLQMRLKYSQSDLEQTKTRHLALNLQEKSKLESELANFGPRINDIKRIIQSREREMKDLKEKMNQVEDEVFEEFCREIGVRNIREFEEEKVKRQNEIAKKRLEFENQKTRLGIQLDFEKNQLKEDQDKVHMWEQTVKKDENEIEKLKKEEQRHMKIIDETMAQLQDLKNQHLAKKSEVNDKNHEMEEIRKKLGGANKEMTHLQKEVTAIETKLEQKRSDRHNLLQACKMQDIKLPLSKGTMDDISQEEGSSQGEDSVSGSQRISSIYAREALIEIDYGDLCEDLKDAQAEEEIKQEMNTLQQKLNEQQSVLQRIAAPNMKAMEKLESVRDKFQETSDEFEAARKRAKKAKQAFEQIKKERFDRFNACFESVATNIDEIYKALSRNSSAQAFLGPENPEEPYLDGINYNCVAPGKRFRPMDNLSGGEKTVAALALLFAIHSYKPAPFFVLDEIDAALDNTNIGKVANYIKEQSTCNFQAIVISLKEEFYTKAESLIGVYPEQGDCVISKVLTFDLTKYPDANPNPNEQ
B7: sp¦P57740¦NU107_HUMAN (protein, UniProt P57740 1-925, looked up)
Nuclear pore complex protein …: MDRSGFGEISSPVIREAEVTRTARKQSAQKRVLLQASQDENFGNTTPRNQVIPRTPSSFRQPFTPTSRSLLRQPDISCILGTGGKSPRLTQSSGFFGNLSMVTNLDDSNWAAAFSSQRSGLFTNTEPHSITEDVTISAVMLREDDPGEAASMSMFSDFLQSFLKHSSSTVFDLVEEYENICGSQVNILSKIVSRATPGLQKFSKTASMLWLLQQEMVTWRLLASLYRDRIQSALEEESVFAVTAVNASEKTVVEALFQRDSLVRQSQLVVDWLESIAKDEIGEFSDNIEFYAKSVYWENTLHTLKQRQLTSYVGSVRPLVTELDPDAPIRQKMPLDDLDREDEVRLLKYLFTLIRAGMTEEAQRLCKRCGQAWRAATLEGWKLYHDPNVNGGTELEPVEGNPYRRIWKISCWRMAEDELFNRYERAIYAALSGNLKQLLPVCDTWEDTVWAYFRVMVDSLVEQEIQTSVATLDETEELPREYLGANWTLEKVFEELQATDKKRVLEENQEHYHIVQKFLILGDIDGLMDEFSKWLSKSRNNLPGHLLRFMTHLILFFRTLGLQTKEEVSIEVLKTYIQLLIREKHTNLIAFYTCHLPQDLAVAQYALFLESVTEFEQRHHCLELAKEADLDVATITKTVVENIRKKDNGEFSHHDLAPALDTGTTEEDRLKIDVIDWLVFDPAQRAEALKQGNAIMRKFLASKKHEAAKEVFVKIPQDSIAEIYNQCEEQGMESPLPAEDDNAIREHLCIRAYLEAHETFNEWFKHMNSVPQKPALIPQPTFTEKVAHEHKEKKYEMDFGIWKGHLDALTADVKEKMYNVLLFVDGGWMVDVREDAKEDHERTHQMVLLRKLCLPMLCFLLHTILHSTGQYQECLQLADMVSSERHKLYLVFSKEELRKLLQKLRESSLMLLDQGLDPLGYEIQL
B8: sp¦P46977¦STT3A_HUMAN (protein, UniProt P46977 1-705, looked up)
Dolichyl-diphosphooligosacchar …: MTKFGFLRLSYEKQDTLLKLLILSMAAVLSFSTRLFAVLRFESVIHEFDPYFNYRTTRFLAEEGFYKFHNWFDDRAWYPLGRIIGGTIYPGLMITSAAIYHVLHFFHITIDIRNVCVFLAPLFSSFTTIVTYHLTKELKDAGAGLLAAAMIAVVPGYISRSVAGSYDNEGIAIFCMLLTYYMWIKAVKTGSICWAAKCALAYFYMVSSWGGYVFLINLIPLHVLVLMLTGRFSHRIYVAYCTVYCLGTILSMQISFVGFQPVLSSEHMAAFGVFGLCQIHAFVDYLRSKLNPQQFEVLFRSVISLVGFVLLTVGALLMLTGKISPWTGRFYSLLDPSYAKNNIPIIASVSEHQPTTWSSYYFDLQLLVFMFPVGLYYCFSNLSDARIFIIMYGVTSMYFSAVMVRLMLVLAPVMCILSGIGVSQVLSTYMKNLDISRPDKKSKKQQDSTYPIKNEVASGMILVMAFFLITYTFHSTWVTSEAYSSPSIVLSARGGDGSRIIFDDFREAYYWLRHNTPEDAKVMSWWDYGYQITAMANRTILVDNNTWNNTHISRVGQAMASTEEKAYEIMRELDVSYVLVIFGGLTGYSSDDINKFLWMVRIGGSTDTGKHIKENDYYTPTGEFRVDREGSPVLLNCLMYKMCYYRFGQVYTEAKRPPGFDRVRNAEIGNKDFELDVLEEAYTTEHWLVRIYKVKDLDNRGLSRT

tested on: human HL60 cells; assay: SWATH-MS proteomics, differential protein representation, akirin2 KO vs WT HL60 cells; format: cell-based; conditions: KO vs WT; akirin2 KO vs WT HL60 cells; sheet "Under-represented in KO"
In short: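 First, proteins from wild-type and knockout cells are digested with trypsin by FASP. Next, pooled IDA runs generate a reference ion library. Then six samples of 5 µg each are acquired by data-independent SWATH, and protein areas are normalized to the summed area of all detected proteins.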

Molecule | Fold Change | Log (Fold Change)
B1 | 0.6182 | -0.2089
B2 | 0.6196 | -0.2079
B3 | 0.6247 | -0.2043
B4 | 0.62 | -0.2076
B5 | 0.6204 | -0.2073

same assay, conditions: akirin2 KO vs WT HL60 cells; sheet "Under-represented in KO"

Molecule | Fold Change | Log (Fold Change)
B6 | 0.2754 | -0.5601
B7 | 0.6316 | -0.1995
B8 | 0.6295 | -0.201
